The source of these data is IntAct's records for PubMed 17170699.

The chains are these.
B1: Protein disulfide-isomerase A3 (Homo sapiens), P30101 (parent)
chain: MRLRRLALFPGVALLLAAARLAAASDVLELTDDNFESRISDTGSAGLMLVEFFAPWCGHCKRLAPEYEAAATRLKGIVPLAKVDCTANTNTCNKYGVSGYPTLKIFRDGEEAGAYDGPRTADGIVSHLKKQAGPASVPLRTEEEFKKFISDKDASIVGFFDDSFSEAHSEFLKAASNLRDNYRFAHTNVESLVNEYDDNGEGIILFRPSHLTNKFEDKTVAYTEQKMTSGKIKKFIQENIFGICPHMTEDNKDLIQGKDLLIAYYDVDYEKNAKGSNYWRNRVMMVAKKFLDAGHKLNFAVASRKTFSHELSDFGLESTAGEIPVVAIRTAKGEKFVMQEEFSRDGKALERFLQDYFDGNLKRYLKSEPIPESNDGPVKVVVAENFDEIVNNENKDVLIEFYAPWCGHCKNLEPKYKELGEKLSKDPNIVIAKMDATANDVPSPYEVRGFPTIYFSPANKKLNPKKYEGGRELSDFISYLQREATNPPVIQEEKPKKKKKAQEDL
partner: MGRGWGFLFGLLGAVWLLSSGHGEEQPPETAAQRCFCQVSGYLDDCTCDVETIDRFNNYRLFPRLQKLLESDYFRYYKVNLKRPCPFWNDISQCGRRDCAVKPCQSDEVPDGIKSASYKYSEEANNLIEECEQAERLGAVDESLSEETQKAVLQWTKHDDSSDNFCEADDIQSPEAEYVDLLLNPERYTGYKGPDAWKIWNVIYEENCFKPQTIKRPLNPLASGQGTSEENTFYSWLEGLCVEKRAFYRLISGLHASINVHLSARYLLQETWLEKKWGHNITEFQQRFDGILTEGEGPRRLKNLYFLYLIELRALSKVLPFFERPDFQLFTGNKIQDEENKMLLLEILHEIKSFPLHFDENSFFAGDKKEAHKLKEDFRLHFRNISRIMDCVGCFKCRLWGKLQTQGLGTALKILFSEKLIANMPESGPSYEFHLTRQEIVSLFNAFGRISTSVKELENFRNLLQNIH

Variants of B1 are the subject of the assay. The note with it: with ero1a_human ERO1A.
Consider MRLRRLALFPGVALLLAAARLAAASDVLELTDDNFESRISDTGSAGLMLVEFFAPWCGHCKRLAPEYEAAATRLKGIVPLAKVDCTANTNTCNKYGVSGYPTLKIFRDGEEAGAYDGPRTADGIVSHLKKQAGPASVPLRTEEEFKKFISDKDASIVGFFDDSFSEAHSEFLKAASNLRDNYRFAHTNVESLVNEYDDNGEGIILFRPSHLTNKFEDKTVAYTEQKMTSGKIKKFIQENIFGICPHMTEDNKDLIQGKDLLIAYYDVDYEKNAKGSNYWRNRVMMVAKKFLDAGHKLNFAVASRKTFSHELSDFGLESTAGEIPVVAIRTAKGEKFVMQEEFSRDGKALERFLQDYFDGNLKRYLKSEPIPESNDGPVKVVVAENFDEIVNNENKDVLIEFYAPWCGHAKNLEPKYKELGEKLSKDPNIVIAKMDATANDVPSPYEVRGFPTIYFSPANKKLNPKKYEGGRELSDFISYLQREATNPPVIQEEKPKKKKKAQEDL [C409A], for which the “effect of a mutation on the interaction” value is on record as “decreasing interaction”.
